Blank lines part the entries; values can stand above or below the substance they belong to.
Legend:
[1] = molecular target: RSV F protein (A2 strain) G438A (human RSV, A2 strain) (UniProt P03420); experiment: cell ELISA, 293T cells expressing F
[2] = molecular target: RSV F protein (A2 strain) I432Q (human RSV, A2 strain) (UniProt P03420); experiment: cell ELISA, 293T cells expressing F
[3] = molecular target: RSV F protein (A2 strain) K427D (human RSV, A2 strain) (UniProt P03420); experiment: cell ELISA, 293T cells expressing F
[4] = molecular target: Wild-type RSV F protein (subgroup B, 18537 strain) (human RSV, 18537 strain) (UniProt P13843); experiment: cell ELISA, 293T cells expressing F
[5] = molecular target: RSV F protein (A2 strain) I431L (human RSV, A2 strain) (UniProt P03420); experiment: cell ELISA, 293T cells expressing F
[6] = molecular target: RSV F protein (A2 strain) K433S (human RSV, A2 strain) (UniProt P03420); experiment: cell ELISA, 293T cells expressing F
[7] = molecular target: RSV F protein (A2 strain) I431A (human RSV, A2 strain) (UniProt P03420); experiment: cell ELISA, 293T cells expressing F
[8] = molecular target: RSV F protein (A2 strain) K433N (human RSV, A2 strain) (UniProt P03420); experiment: cell ELISA, 293T cells expressing F
[9] = molecular target: RSV F protein (A2 strain) F435Y (human RSV, A2 strain) (UniProt P03420); experiment: cell ELISA, 293T cells expressing F
[10] = molecular target: Wild-type RSV F protein (subgroup A, A2 strain) (human RSV, A2 strain) (UniProt P03420); experiment: cell ELISA, 293T cells expressing F
[11] = molecular target: RSV F protein (A2 strain) I432T (human RSV, A2 strain) (UniProt P03420); experiment: cell ELISA, 293T cells expressing F
[12] = molecular target: RSV F protein (A2 strain) T434S (human RSV, A2 strain) (UniProt P03420); experiment: cell ELISA, 293T cells expressing F
[13] = molecular target: RSV F protein (A2 strain) F488L (human RSV, A2 strain) (UniProt P03420); experiment: cell ELISA, 293T cells expressing F
[14] = molecular target: RSV F protein (A2 strain) N428Q (human RSV, A2 strain) (UniProt P03420); experiment: cell ELISA, 293T cells expressing F
[15] = molecular target: RSV F protein (A2 strain) K433Q (human RSV, A2 strain) (UniProt P03420); experiment: cell ELISA, 293T cells expressing F
[16] = molecular target: RSV F protein (A2 strain) K272N (human RSV, A2 strain) (UniProt P03420); experiment: cell ELISA, 293T cells expressing F
[17] = molecular target: RSV F protein (A2 strain) K433L (human RSV, A2 strain) (UniProt P03420); experiment: cell ELISA, 293T cells expressing F
[18] = molecular target: RSV F protein (A2 strain) G430A (human RSV, A2 strain) (UniProt P03420); experiment: cell ELISA, 293T cells expressing F
[19] = molecular target: RSV F protein (A2 strain) V447A (human RSV, A2 strain) (UniProt P03420); experiment: cell ELISA, 293T cells expressing F
[20] = molecular target: RSV F protein (A2 strain) R429S (human RSV, A2 strain) (UniProt P03420); experiment: cell ELISA, 293T cells expressing F
[21] = molecular target: RSV F protein (A2 strain) K272M (human RSV, A2 strain) (UniProt P03420); experiment: cell ELISA, 293T cells expressing F
[22] = molecular target: RSV F protein (A2 strain) F483L (human RSV, A2 strain) (UniProt P03420); experiment: cell ELISA, 293T cells expressing F
[23] = molecular target: RSV F protein (A2 strain) F488Y (human RSV, A2 strain) (UniProt P03420); experiment: cell ELISA, 293T cells expressing F
[24] = molecular target: RSV F protein (A2 strain) K433T (human RSV, A2 strain) (UniProt P03420); experiment: cell ELISA, 293T cells expressing F
[25] = molecular target: RSV F protein (A2 strain) N428D (human RSV, A2 strain) (UniProt P03420); experiment: cell ELISA, 293T cells expressing F
[26] = molecular target: RSV F protein (A2 strain) D486N (human RSV, A2 strain) (UniProt P03420); experiment: cell ELISA, 293T cells expressing F
[27] = molecular target: RSV F protein (A2 strain) S436T (human RSV, A2 strain) (UniProt P03420); experiment: cell ELISA, 293T cells expressing F
[28] = molecular target: RSV F protein (A2 strain) C422S (human RSV, A2 strain) (UniProt P03420); experiment: cell ELISA, 293T cells expressing F
[29] = molecular target: RSV F protein (A2 strain) K433R (human RSV, A2 strain) (UniProt P03420); experiment: cell ELISA, 293T cells expressing F
[30] = molecular target: RSV F protein (A2 strain) K272Q (human RSV, A2 strain) (UniProt P03420); experiment: cell ELISA, 293T cells expressing F
[31] = molecular target: RSV F protein (A2 strain) S275F (human RSV, A2 strain) (UniProt P03420); experiment: cell ELISA, 293T cells expressing F
[32] = molecular target: RSV F protein (A2 strain) N437D (human RSV, A2 strain) (UniProt P03420); experiment: cell ELISA, 293T cells expressing F
[33] = molecular target: RSV F protein (A2 strain) K272T (human RSV, A2 strain) (UniProt P03420); experiment: cell ELISA, 293T cells expressing F
[34] = molecular target: RSV F protein (A2 strain) F483Y (human RSV, A2 strain) (UniProt P03420); experiment: cell ELISA, 293T cells expressing F
[35] = molecular target: RSV F protein (A2 strain) T400A (human RSV, A2 strain) (UniProt P03420); experiment: cell ELISA, 293T cells expressing F
[36] = molecular target: RSV F protein (A2 strain) S436F (human RSV, A2 strain) (UniProt P03420); experiment: cell ELISA, 293T cells expressing F
[37] = molecular target: RSV F protein (A2 strain) K433D (human RSV, A2 strain) (UniProt P03420); experiment: cell ELISA, 293T cells expressing F
[38] = molecular target: RSV F protein (A2 strain) R429K (human RSV, A2 strain) (UniProt P03420); experiment: cell ELISA, 293T cells expressing F
[39] = molecular target: RSV F protein (A2 strain) K427E (human RSV, A2 strain) (UniProt P03420); experiment: cell ELISA, 293T cells expressing F
[40] = molecular target: RSV F protein (A2 strain) K427Q (human RSV, A2 strain) (UniProt P03420); experiment: cell ELISA, 293T cells expressing F
[41] = molecular target: RSV F protein (A2 strain) I432L (human RSV, A2 strain) (UniProt P03420); experiment: cell ELISA, 293T cells expressing F
[42] = molecular target: RSV F protein on human RSV virus (Long strain) (human RSV, Long strain) (UniProt P12568); experiment: cell-based or functional assay
[43] = molecular target: soluble, extracellular domain of recombinantly expressed RSV F protein (human RSV); experiment: SPR (BIAcore 3000), F protein amine-coupled to CM5 chip

Substance: chimeric 101F mAb (antibody)
% mAb binding relative to wild-type [1]: 9.2%

Substance: mAb19 (antibody)
% mAb binding relative to wild-type [2]: 57.9% | % mAb binding relative to wild-type [3]: -12.7% | % mAb binding relative to wild-type [4]: 105% | % mAb binding relative to wild-type [5]: 65.5% | % mAb binding relative to wild-type [6]: 112% | % mAb binding relative to wild-type [7]: 81.8% | % mAb binding relative to wild-type [8]: 28.7% | % mAb binding relative to wild-type [9]: 9.2% | % mAb binding relative to wild-type [10]: 99.9% | % mAb binding relative to wild-type [11]: 170% | % mAb binding relative to wild-type [12]: 84.9% | % mAb binding relative to wild-type [13]: 40% | % mAb binding relative to wild-type [14]: 194% | % mAb binding relative to wild-type [15]: 47.4% | % mAb binding relative to wild-type [16]: 62.3% | % mAb binding relative to wild-type [17]: 24.5% | % mAb binding relative to wild-type [18]: 0.15% | % mAb binding relative to wild-type [19]: 62.7% | % mAb binding relative to wild-type [20]: 3.9% | % mAb binding relative to wild-type [21]: 100% | % mAb binding relative to wild-type [22]: 101% | % mAb binding relative to wild-type [23]: 56% | % mAb binding relative to wild-type [24]: 64.4% | % mAb binding relative to wild-type [25]: 121% | % mAb binding relative to wild-type [26]: 30.7% | % mAb binding relative to wild-type [27]: 85.8% | % mAb binding relative to wild-type [28]: 194% | % mAb binding relative to wild-type [29]: 23.1% | % mAb binding relative to wild-type [30]: 88.7% | % mAb binding relative to wild-type [31]: 31.7% | % mAb binding relative to wild-type [32]: 33.2% | % mAb binding relative to wild-type [33]: 68% | % mAb binding relative to wild-type [34]: 141% | % mAb binding relative to wild-type [35]: 161% | % mAb binding relative to wild-type [36]: 163% | % mAb binding relative to wild-type [37]: 1.6% | % mAb binding relative to wild-type [38]: 11.2% | % mAb binding relative to wild-type [39]: 68.7% | % mAb binding relative to wild-type [1]: 19% | % mAb binding relative to wild-type [40]: 155% | % mAb binding relative to wild-type [41]: 64.4%

Substance: palivizumab (antibody)
RSV neutralization IC50 (Palivizumab) [42]: 0.1 mg/L | Kd [43]: 1.1 nM

RSV neutralization IC50 (Palivizumab Fab) [42]: 3.2 mg/L | Kd [43]: 1.5 nM | koff [43]: 0.0011 s⁻¹ | kon [43]: 720000 M⁻¹ s⁻¹
Substance: palivizumab Fab

Reference: patent publication US20060159695A1
